Patent US20260062488A1 (AbbVie / Abbott, published 2026)

Key:
[1] = target: T1, cynomolgus α4β7 integrin (cynomolgus monkey); assay: FACS, cyno CD8+ memory
T1 construct: whole, on cells; On CHOK1-cα4β7 cells or cynomolgus blood lymphocytes; also called cα4β7; cyno α4β7

[2] = target: T2, rabbit α4β7 integrin (rabbit); assay: FACS, rabbit lymphocytes
T2 construct: whole, on cells; On rabbit PBMCs

[3] = target: T2, rabbit α4β7 integrin; assay: FACS, rabbit CD4+ T cells
[4] = target: T3, human FcγRI on CHO-K1 cells (human, UniProt P12314 16-374); assay: flow cytometry on CHO-K1 cells expressing the receptor (curve FcgRI), monomeric antibody, F(ab')2 anti-human IgG AF647; N=1
T3 construct: whole, on cells
T3 sequence (P12314 16-374): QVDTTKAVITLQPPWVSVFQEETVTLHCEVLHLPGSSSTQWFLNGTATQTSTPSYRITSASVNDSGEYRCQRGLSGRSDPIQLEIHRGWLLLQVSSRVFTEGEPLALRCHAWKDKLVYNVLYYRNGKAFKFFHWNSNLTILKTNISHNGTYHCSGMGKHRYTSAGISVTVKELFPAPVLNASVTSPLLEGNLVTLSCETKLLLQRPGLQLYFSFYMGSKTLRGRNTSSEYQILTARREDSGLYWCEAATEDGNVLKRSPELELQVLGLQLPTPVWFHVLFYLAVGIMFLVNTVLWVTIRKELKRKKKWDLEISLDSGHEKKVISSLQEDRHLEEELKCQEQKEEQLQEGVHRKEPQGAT

[5] = target: T4, FcgRIIA H131 (human, UniProt P12318); assay: flow cytometry on CHO-K1 cells expressing the receptor (curve FcgRIIA H131), monomeric antibody, F(ab')2 anti-human IgG AF647; N=1
T4 construct: cell surface, on engineered CHO-K1 cells; the list of molecules has only an FcγRIIa on CHO-K1 cells without the variant; also called human FcγRIIa (H131) on CHO-K1 cells
T4 sequence (receptor chain, looked up): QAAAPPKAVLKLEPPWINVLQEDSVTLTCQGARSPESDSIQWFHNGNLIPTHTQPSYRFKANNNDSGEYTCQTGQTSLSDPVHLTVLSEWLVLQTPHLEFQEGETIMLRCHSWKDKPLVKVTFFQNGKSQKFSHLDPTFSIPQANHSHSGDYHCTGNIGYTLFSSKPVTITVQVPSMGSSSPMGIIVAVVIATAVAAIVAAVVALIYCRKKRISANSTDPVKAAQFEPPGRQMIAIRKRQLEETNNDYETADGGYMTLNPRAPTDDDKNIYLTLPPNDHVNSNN

B1: Ab-h1.9d-WT (antibody, human IgG1, kappa)
heavy: not shown
light: DIQMTQSPSSLSASVGDRVTITCHASQDISDNIGWLQQKPGKSFKLLIYHGTNLEDGVPSRFSGSGSGTDYTLTISSLQPEDFATYYCVQYAQFPWTFGGGTKVEIKRTVAAPSVFIFPPSDEQLKSGTASVVCLLNNFYPREAKVQWKVDNALQSGNSQESVTEQDSKDSTYSLSSTLTLSKADYEKHKVYACEVTHQGLSSPVTKSFNRGEC
notes: IgG1/kappa with D356E and L358M (EU); also called Anti-human α4β7 (AC-166667) hu IgG1/k WT mAb
EC50 [1]: 0.036 nM | EC50 [2]: 0.089 nM | EC50 [3]: 0.097 nM | binding result [4]: binds | binding result [5]: binds
